Measurements: publication PMC12772958

Target: PLEKHO2
Assay: BioID in situ proximity labelling, streptavidin pulldown, mass spectrometry (LFQ)
Conditions: U937 stable cell lines; biotin 24 h; n=3; read off a plot

enrichment: 5.2
Substance: BirA*–MYO1F tail (from UniProt O00160) K770A; R780A
